Reference: article PMC6948192, “Structural Organization and Dynamics of Homodimeric Cytohesin Family Arf GTPase Exchange Factors in Solution and on Membranes” (Structure(London, England:1993), 2019)

Assays:
[1] = molecular target: the molecule itself; experiment: SEC-SAXS; BioCAT 18-ID (APS); samples with 1.2 molar excess of IP4, concentrated to 10-20 mg/ml, Superdex-200 Increase; 20 mM Tris pH 8.0, 150 mM NaCl, 2 mM MgCl2, 0.1% 2-mercaptoethanol, 5% glycerol, 1 μM IP4; peak concentration ∼80 μM (Grp1 14-399), ∼1 mg/mL (Grp1 14-390)
[2] = molecular target: the molecule itself; experiment: SEC-SAXS; ARNOFL, no phosphoinositide head group; BM29 beamline (ESRF), Bio Sec300 HPLC column, 600 μg in 60 μL injected

Protein	stoichiometry N [1]	stoichiometry N [2]
Grp1_(14-390), constitutively active construct lacking the polybasic motif (domain or fragment, mouse, UniProt O08967 14-390, looked up, Grp1 (cytohesin-3), mouse, diglycine splice variant, residues 14-390 (lacks the polybasic region); also called fully active Grp1 dimer; source: E. coli BL21(DE3), purified (Ni-NTA, HiTrap Q, Superdex-200)) EDLSLEEREELLDIRRRKKELIDDIERLKYEIAEVMTEIDNLTSVEESKTTQRNKQIAMGRKKFNMDPKKGIQFLIENDLLQSSPEDVAQFLYKGEGLNKTVIGDYLGERDDFNIKVLQAFVELHEFADLNLVQALRQFLWSFRLPGEAQKIDRMMEAFASRYCLCNPGVFQSTDTCYVLSFAIIMLNTSLHNHNVRDKPTAERFITMNRGINEGGDLPEELLRNLYESIKNEPFKIPEDDGNDLTHTFFNPDREGWLLKLGGRVKTWKRRWFILTDNCLYYFEYTTDKEPRGIIPLENLSIREVEDPRKPNCFELYNPSHKGQVIKACKTEADGRVVEGNHVVYRISAPSPEEKEEWMKSIKASISRDPFYDMLAT	2	–
Full-length ARNO carrying a 3G sequence in the membrane-binding site (ARNOFL) (natural protein, human, UniProt Q99418 1-400, looked up, Cloned in pET-8c (Antonny et al., 1997); also called Cytohesin-2; source: E. coli, purified (Ni-NTA HisTrap FF, Superdex 200)) MEDGVYEPPDLTPEERMELENIRRRKQELLVEIQRLREELSEAMSEVEGLEANEGSKTLQRNRKMAMGRKKFNMDPKKGIQFLVENELLQNTPEEIARFLYKGEGLNKTAIGDYLGEREELNLAVLHAFVDLHEFTDLNLVQALRQFLWSFRLPGEAQKIDRMMEAFAQRYCLCNPGVFQSTDTCYVLSFAVIMLNTSLHNPNVRDKPGLERFVAMNRGINEGGDLPEELLRNLYDSIRNEPFKIPEDDGNDLTHTFFNPDREGWLLKLGGGRVKTWKRRWFILTDNCLYYFEYTTDKEPRGIIPLENLSIREVDDPRKPNCFELYIPNNKGQLIKACKTEADGRVVEGNHMVYRISAPTQEEKDEWIKSIQAAVSVDPFYEMLAARKKRISVKKKQEQP	–	2
Grp1_(14-399), diglycine variant, autoinhibited, in complex with the head group of PIP3 (IP4) (domain or fragment, mouse, UniProt O08967 14-399, looked up, Incubated with a 1.2 molar excess of inositol 1,3,4,5-tetrakisphosphate (IP4) before SEC-SAXS and NS-EM; source: E. coli BL21(DE3), purified (Ni-NTA, HiTrap Q, Superdex-200)) EDLSLEEREELLDIRRRKKELIDDIERLKYEIAEVMTEIDNLTSVEESKTTQRNKQIAMGRKKFNMDPKKGIQFLIENDLLQSSPEDVAQFLYKGEGLNKTVIGDYLGERDDFNIKVLQAFVELHEFADLNLVQALRQFLWSFRLPGEAQKIDRMMEAFASRYCLCNPGVFQSTDTCYVLSFAIIMLNTSLHNHNVRDKPTAERFITMNRGINEGGDLPEELLRNLYESIKNEPFKIPEDDGNDLTHTFFNPDREGWLLKLGGRVKTWKRRWFILTDNCLYYFEYTTDKEPRGIIPLENLSIREVEDPRKPNCFELYNPSHKGQVIKACKTEADGRVVEGNHVVYRISAPSPEEKEEWMKSIKASISRDPFYDMLATRKRRIANKK	2	–
